For six sequences, protein production results are on record in a protein production outcome set (Wang et al. 2014).

The data set in a line: label from the status in PepcDB records.
Turning to “MGYSGKPHHQLDGEIRESTDGKKWVIAGIPSRSPLKQINLSPGVTVTETEEQDQCPTTPTAVSVRIPRVPPCPAAPKKRKPSLKCSYVTVTRDYFSPPDLETVFIQRASY”, the protein production entry is listed as “failed”.
Turning to “MRGARKSMGRVSYLRLPHLSGDQLCFVAEDDLWLASLDGPGRAWRLTVDRTKAGPPRFSPDGRHIAYTSWRTLVPEVHLVPVDGGPGRQLTHWGGLDTRVCGWSPPDPDGTTAVLAVASHGEPFSHLTWAYKVTPDGDPGRKLPWGPVTDIQAADLDGERRTLLLTGTPPHEPAAWKRYRGGATGRLWLHGERLLPDLGGHLSAPMFVGGRIAFLSDHEGVGNLYSCAQDGTGLRRHTDHDAFYARNAASDGTRVVYQCAGDLWIVDDLAPGSAPRRLDVRLSGPRAGRRTHQVPAAQHVGGISVDETGRASAVVVRGSLYWLTHRDGPARTIADTPGVRVRLPEMLGESGRIAYVTDAEGEDAVEISYLPRATGGRAARRLASGRLGRVLELVSDPAGDRLAVASHDGRLLILDVAEPDTEVTLALEAVDAGYPPDAGDEDAAGTAARADSAPDAPAEDTDARDIAAGTGTGDIADADAAAGGTVTPGSPGTPATAGGQVTELIRSVNGPVRDLAFSPDGTWLTWSHPGIGRTLRQIKMARIDGPEGTLVVDVTNGRFEDENPVFTRDGRYLAFLSWRGFDPVYDVHTGDLSFPLGCRPYLVPLSSATPSPFALNPEGRPAAGGLDPLEDEPGEGGAVMVEVEGLESRVTPFPVTASKYSALEPVAGGGLVWLRWPISGALGETFANPADPSERPTLEHFNLAKAKKSELVDHLDWFRVSGDGSRLVVLDEGELRAVPASEVGDGDSTTWIDLRRILHEVDPAAEWRQAYDEAGRLIRAYFWDPGMCGIDWDAVLDQYRPLLERVASPDEFADLLREVLGELGTSHAYVVAARRNEGPAHYQRWQGLLGANLACRDGRWLVRRILPGDSSDSKARSPLAGTGIRDGAVLTHVDGRPVDPVLGPSPLLAGAGGTTVELTFAPAEGCQGPSRRVAVVPLVDERPLRYQDWVAKRREVVRELSGGRCGYLHIPDMGGSGWAQFNRDLRMEVSRPALIVDVRGNAGGHISELVIEKLTRTILGWDLTRDAQPVSYTSNAPRGPVVAVADEATSSDGDMITAAFKLLRLGPVVGQRTWGGVVGMTGRHRLGDGSVITVPMNAAWFDAYGWSVENYGVAPDVEALRTPLDWAEGRYPVLDEAVRLALELLETNPPATPPGYEAVPDRSRPPLPPRE”, the protein production result is listed as “failed”.
In the case of “MSLQRLLQHSSNGNLADFCAGPAYSSYSTLTGSLTMDDNRRIQMLADTVATLPRGRKQLALTRSSSLSDFSWSQRKLVTVEKQDNETFGFEIQSYRPQNQNACSSEMFTLICKIQEDSPAHCAGLQAGDVLANINGVSTEGFTYKQVVDLIRSSGNLLTIETLNGTMILKRTELEAKLQVLKQTLKQKWVEYRSLQLQEHRLLHGDAANCPSLENMDLDELSLFGPLPGPGPALVDRNRLSSESSCKSWLSSMTMDSEDGYQTCVSEDSSRGAFSRQTSTDDECFIPKEGDDFLRRSSSRRNRSISNTSSGSMSPLWEGNLSSMFGTLPRKSRKGSVRKQLLKFIPGLHRAVEEEESRF” it was “not failed”; in that of “MLERILEPEVMDTEAEAMDYDAMDFQAVNLAFAQRACQLGPSKATVLDAGTGTARIPILLAQLRPAWQITAIDFARSMLAIAKENVIAAGCETQICLEFVDAKQLPYANGSFDGVIANSLCHHLPRPLDFLREVKRVLKPHGFLLIRDLIRPESPEKLADFVTAIGSDYNDQQRKLFADSLHASLTIAEIQDYLQHLGWVGDDGPNLELHLYQSSDRHWTLEKKFQSSTIVQR”, “failed”.
The entry for “MNKFIKYFLILLSFGLLVVPIIFATQLYQSSESAFESSQNTKDSQRKSTLRDSKVDPEKQPISILFLGIDDNEGREKNGQSVEHSRSDAMILSTFNQKKHQIRMLSIPRDTISYIPKVGYYDKITHAHAYGGPLAAMDSVEATMNVPVDYYVRINMKAFVEAVDELGGIYYDVPYNLNEPNSDDTGRIKIKKGYQKLNGDQALAVARTRHHDSDLKRGQRQMELIKILFQKAQNLKSIDKLDNVISIVGKNAKHNLTQKEIKSLAKMYLGGSTEIKTSQLKGKDDYLNDIYYYHPSVKSIMEYSNLLRNDLDLSKITNKNDFLDQRVIKRYGSLVPLTELDEDLLRKNQKESTDSQKESDSSSQNNDEEDQTNEQTDQNSLNGNEQYPNQQDNNQTNGENGMINNDNYPYAQ” is “failed”.
The entry for “MIKSSLPPILTSQIGPDSIELRLLVAADLEYFNGHFPEQAVLPGVTQLDWAVRLGCEHFGYSAAVANLEVLKFQQLILPGQEVTLVISHNATKEKLTFAYSDGDHRYASGRISFASKQDDGAAQ” is “failed”.
